Results as given in doi:10.1101/2020.03.23.004119 (bioRxiv, 2020).

Molecular target: the molecule itself
Assay: two-hybrid

B1: hPFKFB4 mammalian two-hybrid fusion (pBind-PFKFB4 and pAct-PFKFB4) (enzyme, human, UniProt Q16877 1-469, looked up)
chain: MASPRELTQNPLKKIWMPYSNGRPALHACQRGVCMTNCPTLIVMVGLPARGKTYISKKLTRYLNWIGVPTREFNVGQYRRDVVKTYKSFEFFLPDNEEGLKIRKQCALAALRDVRRFLSEEGGHVAVFDATNTTRERRATIFNFGEQNGYKTFFVESICVDPEVIAANIVQVKLGSPDYVNRDSDEATEDFMRRIECYENSYESLDEDLDRDLSYIKIMDVGQSYVVNRVADHIQSRIVYYLMNIHVTPRSIYLCRHGESELNLKGRIGGDPGLSPRGREFAKSLAQFISDQNIKDLKVWTSQMKRTIQTAEALGVPYEQWKVLNEIDAGVCEEMTYEEIQDNYPLEFALRDQDKYRYRYPKGESYEDLVQRLEPVIMELERQENVLVICHQAVMRCLLAYFLDKAAEQLPYLKCPLHTVLKLTPVAYGCKVESIFLNVAAVNTHRDRPQNVDISRPPEEALVTVPAHQ
fold luciferase expression over the negative controls: 6 fold
